Results on four substances are retold here after patent US20180355059A1.

Values joined by “and” are separate entries in the source; they are usually repeats but may differ in a detail not shown here. Equal values may be shown once. A value given as a limit tells only on which side of the number the result lay.

Test [1] has as its target recombinant cyno monkey PCSK9 protein (cyno monkey). The test can be described thus: ELISA; antibody 0 nM. Background: In an ELISA, binding on a coated surface is turned into a signal by an enzyme label.
The target is the same in test [2]. The test is described as follows: ELISA; antibody 6.67 nM.
Test [3] has the same target. The test can be described thus: ELISA; antibody 66.67 nM.
Test [4] concerns the target recombinant human PCSK9-His protein (Immunogen A) (human) (UniProt Q8NBP7). The test can be described thus: ELISA; antibody 66.67 nM.
For test [5] the target is unchanged. The test is described as follows: ELISA of PCSK9 binding to LDLR ECD; antibody 200 nM.
For test [6] the target is unchanged. The test can be described thus: ELISA of PCSK9 binding to LDLR ECD; antibody 0 nM.
Test [7] concerns the target recombinant cyno monkey PCSK9 protein (cyno monkey). The test can be described thus: ELISA; antibody 0.00067 nM.
Test [8] concerns the target recombinant human PCSK9^D374Y protein (human) (UniProt Q8NBP7). The test can be described thus: ELISA of PCSK9^D374Y binding to LDLR ECD; antibody 0.06 nM.
Test [9] has as its target recombinant human PCSK9-His protein (Immunogen A) (human) (UniProt Q8NBP7). The test is described as follows: ELISA of PCSK9 binding to LDLR ECD; antibody 8 nM.
For test [10] the target is unchanged. The test can be described thus: ELISA of PCSK9 binding to LDLR ECD; antibody 40 nM.
Test [11] deals with recombinant cyno monkey PCSK9 protein (cyno monkey). The test can be described thus: ELISA; antibody 0.67 nM.
The target is the same in test [12]. The test can be described thus: ELISA; antibody 0.000067 nM.
Test [13] shares this target. The test can be described thus: ELISA; antibody 0 nM. The source holds these as a separate data set.
Test [14] has as its target recombinant human PCSK9-His protein (Immunogen A) (human) (UniProt Q8NBP7). The test is described as follows: SPR, Biacore T200; antibody captured by anti-human Fc. (In general: SPR reads the build-up and loss of mass on a sensor chip optically.)
For test [15], the target named is recombinant cyno monkey PCSK9 protein (cyno monkey). The test is described as follows: ELISA, biotin-cyno PCSK9 on streptavidin plate; antibody 0.00067 nM.
The target in test [16] is recombinant human PCSK9 protein, His-tagged (Immunogen A, hPCSK9-His) (human) (UniProt Q8NBP7). The test can be described thus: blocking ELISA, biotin-hPCSK9-His on coated LDLR ECD-His; antibody 0.01 nM.
Test [17] has the same target. The test can be described thus: blocking ELISA, biotin-hPCSK9-His on coated LDLR ECD-His; antibody 1.6 nM.
The target in test [18] is recombinant cyno monkey PCSK9 protein (cyno monkey). The test is described as follows: ELISA, biotin-cyno PCSK9 on streptavidin plate; antibody 0.067 nM.
The target is the same in test [19]. The test can be described thus: ELISA, biotin-cyno PCSK9 on streptavidin plate; antibody 6.67 nM.
The target of test [20] is recombinant human PCSK9 protein, His-tagged (Immunogen A, hPCSK9-His) (human) (UniProt Q8NBP7). The test can be described thus: ELISA, biotin-hPCSK9-His on streptavidin plate; antibody 0.00067 nM.
Test [21] shares this target. The test can be described thus: blocking ELISA, biotin-hPCSK9-His on coated LDLR ECD-His; antibody 8 nM.
The target is the same in test [22]. The test can be described thus: blocking ELISA, biotin-hPCSK9-His on coated LDLR ECD-His; antibody 40 nM.
Test [23] shares this target. The test is described as follows: ELISA, biotin-hPCSK9-His on streptavidin plate; antibody 6.67 nM.
The target is the same in test [24]. The test is described as follows: ELISA, biotin-hPCSK9-His on streptavidin plate; antibody 0.000067 nM.
For test [25] the target is unchanged. The test can be described thus: ELISA, biotin-hPCSK9-His on streptavidin plate; antibody 0.0067 nM.
Test [26] has the same target. The test is described as follows: ELISA, biotin-hPCSK9-His on streptavidin plate; antibody 66.67 nM.
For test [27] the target is unchanged. The test can be described thus: ELISA, biotin-hPCSK9-His on streptavidin plate; antibody 0.67 nM.
Test [28] has the same target. The test is described as follows: blocking ELISA, biotin-hPCSK9-His on coated LDLR ECD-His; antibody 0.32 nM.
Test [29] has as its target recombinant cyno monkey PCSK9 protein (cyno monkey). The test is described as follows: ELISA, biotin-cyno PCSK9 on streptavidin plate; antibody 0.0067 nM.
Test [30] has as its target recombinant human PCSK9 protein, His-tagged (Immunogen A, hPCSK9-His) (human) (UniProt Q8NBP7). The test is described as follows: ELISA, biotin-hPCSK9-His on streptavidin plate; antibody 0 nM (blank).
For test [31] the target is unchanged. The test is described as follows: blocking ELISA, biotin-hPCSK9-His on coated LDLR ECD-His; antibody 0.06 nM.
Test [32] shares this target. The test is described as follows: blocking ELISA, biotin-hPCSK9-His on coated LDLR ECD-His; antibody 200 nM.
For test [33] the target is unchanged. The test can be described thus: ELISA, biotin-hPCSK9-His on streptavidin plate; antibody 0.067 nM.
The target of test [34] is recombinant cyno monkey PCSK9 protein (cyno monkey). The test can be described thus: ELISA, biotin-cyno PCSK9 on streptavidin plate; antibody 66.67 nM.
Test [35] has the same target. The test is described as follows: ELISA, biotin-cyno PCSK9 on streptavidin plate; antibody 0.000067 nM.
For test [36] the target is unchanged. The test can be described thus: ELISA, biotin-cyno PCSK9 on streptavidin plate; antibody 0 nM (blank).
Test [37] has the same target. The test is described as follows: ELISA, biotin-cyno PCSK9 on streptavidin plate; antibody 0.67 nM.

Chain of recombinant cyno monkey PCSK9 protein (cyno monkey) (A8T666 31-692 limits assumed): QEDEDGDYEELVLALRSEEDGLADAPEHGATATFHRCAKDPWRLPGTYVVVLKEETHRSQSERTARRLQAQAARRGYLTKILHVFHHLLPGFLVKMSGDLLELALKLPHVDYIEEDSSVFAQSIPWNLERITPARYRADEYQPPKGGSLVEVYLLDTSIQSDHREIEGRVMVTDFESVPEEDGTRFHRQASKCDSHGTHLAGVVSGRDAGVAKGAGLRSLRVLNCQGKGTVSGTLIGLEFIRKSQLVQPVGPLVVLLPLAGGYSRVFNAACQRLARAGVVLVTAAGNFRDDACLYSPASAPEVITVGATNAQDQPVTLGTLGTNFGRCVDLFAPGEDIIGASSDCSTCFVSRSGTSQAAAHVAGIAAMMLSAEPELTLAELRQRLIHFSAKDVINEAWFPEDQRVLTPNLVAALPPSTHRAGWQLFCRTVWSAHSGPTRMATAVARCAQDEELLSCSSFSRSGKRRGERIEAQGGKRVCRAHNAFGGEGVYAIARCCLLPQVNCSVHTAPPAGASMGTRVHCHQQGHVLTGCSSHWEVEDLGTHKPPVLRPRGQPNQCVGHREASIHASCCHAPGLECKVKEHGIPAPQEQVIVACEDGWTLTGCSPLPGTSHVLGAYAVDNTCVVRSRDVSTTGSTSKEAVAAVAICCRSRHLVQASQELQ

As for IgG control (human IgG) (antibody), the OD450 nm in test [1] is 0.06 OD450 nm; in test [2] it was 0.15 OD450 nm; in test [3], 0.81 OD450 nm; in test [4], 0.97 OD450 nm; in test [5] it was 1.41 OD450 nm; in test [6] it was 2.4 OD450 nm. Also, the OD450 nm was 0.07 OD450 nm in test [7]; 1.57 OD450 nm in [8]; 1.76 OD450 nm in test [9]; 1.43 OD450 nm in test [10]; 0.08 OD450 nm in [11]; 0.07 OD450 nm in test [12]. Also, in test [13], the OD450 nm is 0.07 OD450 nm.
Alirocumab, Regeneron (antibody): in test [14], the Kd – broadly, the constant that tells how readily two partners part at equilibrium – stood at 0.394 nM; the koff (commonly the first-order rate constant of dissociation) was found to be 0.000318 s⁻¹; the kon (as a rule, the second-order rate constant of association) is 806000 M⁻¹ s⁻¹.
IgG control (rat IgG) (antibody): the OD450 nm is 0.16 OD450 nm in [15]; 0.12 OD450 nm in test [18]; 0.17 OD450 nm in test [19]; 0.18 OD450 nm and 0.09 OD450 nm in [20]; 0.1 OD450 nm in test [23]; 0.11 OD450 nm in test [24]. Besides, the OD450 nm in test [25] is 0.18 OD450 nm and 0.1 OD450 nm; in [26] it was 0.11 OD450 nm; in test [27] it was 0.09 OD450 nm; in test [29] it was 0.12 OD450 nm; in test [30], 0.1 OD450 nm; in test [33], 0.12 OD450 nm and 0.09 OD450 nm. For the same substance, the OD450 nm in test [34] worked out at 0.18 OD450 nm; in [35], 0.19 OD450 nm; in [36], 0.15 OD450 nm; in test [37] it was 0.12 OD450 nm. Also, the OD450 nm (PCSK9 bound to LDLR) was 1.22 OD450 nm and 1.18 OD450 nm in [16]; 1.09 OD450 nm and 1.12 OD450 nm in [17]; 1.02 OD450 nm and 1.07 OD450 nm in test [21]; 1.01 OD450 nm and 1.11 OD450 nm in test [22]; 1.2 OD450 nm and 1.13 OD450 nm in test [28]; 1.26 OD450 nm and 1.2 OD450 nm in [31]. Further, the OD450 nm (PCSK9 bound to LDLR) in test [32] is 1.22 OD450 nm and 1.14 OD450 nm.
As for Evolocumab, Amgen (antibody), in [14], the Kd was under 0.122 nM, the koff is 0.000822 s⁻¹ and the kon is under 100000 M⁻¹ s⁻¹.
